Source: the supplement of paper PMC11865577

Key:
Test in all cases: pull-down binding Z-score (relative to library population); higher = stronger binding
Settings in all cases: RNA library: Library-2
[1] = system: TO-N3 (biotin conjugate)
In short: (§1)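 Biotin-conjugated small molecule (100 pmol) on streptavidin beads was incubated with 1 μg of heat-folded Cy5- or Cy3-end-labelled RNA library in phosphate/NaCl/KCl buffer at 25 °C for 60 min. Following three washes, RNA was eluted with hot SDS and hybridised at 55.5 °C for 20 h to a DNA barcode microarray. The binding value is a Z-score computed from the library mean and standard deviation, after subtraction of beads without compound and averaging of barcoded replicate probes with the highest and lowest excluded.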

[2] = system: TO-N3-2 (biotin conjugate)
In short: as §1

[3] = system: TO-3-N3 (biotin conjugate)
In short: as §1

[4] = system: TO-3-N3-2 (biotin conjugate)
In short: as §1

Sequence	pull-down binding Z-score [1]	pull-down binding Z-score [2]	pull-down binding Z-score [3]	pull-down binding Z-score [4]
AGGUAAAACCAACAGUGGUUGUUAAUGCAGCCAAUGUUUACCU	-1.2	-1.45	-0.405	-0.615
AGGUAAGUAUGAUACUUACCUG [U1snRNP5ss-2]	-0.856	-0.8	-0.742	-0.581
AGGUCAAAUCAAUGAUAUGAUUUUAUCU [SHAPE_invitro_SARS-CoV-2_Motif_388]	-1.31	-1.35	-0.87	-0.624
AGGUCCAGACAUGUUCCUCGGAACUUGUCGGCGUUGUCCU	-0.838	0.332	-0.757	-0.441
AGGUUGGACAGCUGGUGCUGCAGCUU [SHAPE_invivo_SARS-CoV-2_Motif_420]	0.754	0.891	0.658	0.159
AGGUUGGUAUGCAAAAGUAUUCUACACUCCAGGGACCACCUGGUACUGGUAAGAGUCAUUUUGCUAUUGGCCU	-0.418	0.696	-0.654	-0.203
AGUACACCUUUGAAAAAGGUGACU	-1.22	-1.09	-0.883	-0.572
AGUAUGGCUACAUACU [DMSMaPseq_invitro_SARS-CoV-2_Motif_53]	-1.06	-1.19	-0.637	-0.367
AGUCAGACAAAUCGCUCCAGGGCAAACUGGAAAGAUUGCUGAUU	0.0567	0.136	0.0712	0.0858
AGUCAUAACAAGAGAAGUGGGUUUUGUCGUGCCUGGUUUGCCUGGCACGAUAUUACGCACAACUAAUGGUGACU [DMSMaPseq_invitro_SARS-CoV-2_Motif_162]	-0.62	-0.252	-0.612	-0.178
AGUCAUAGUCAGUUAGGUGGUUUACAUCUACUGAUUGGACU	-1.35	-0.775	-1.18	-0.281
AGUCCCUGUUGCUAUUCAUGCAGAUCAACUUACUCCUACUUGGCGUGUUUAUUCUACAGGUUCUAAUGUUUUUCAAACACGUGCAGGCUGUUUAAUAGGGGCU	-1.03	-0.608	-0.948	-0.638
AGUCUUGUAGUGCGUUGUUCGUUCUAUGAAGACU	-0.932	-1.06	-0.733	-0.844
AGUGAGUACACUGGUAAUUACCAGUGUGGUCACU [SHAPE_invivo_SARS-CoV-2_Motif_119]	-0.332	-1.01	0.0351	0.0249
AGUGAUGGAACU [DMSMaPseq_invitro_SARS-CoV-2_Motif_229]	-0.658	-0.572	-0.565	-0.117
AGUGCCAACAGACAAUUAUAUAACCACUUACCCGGGUCAGGGUUUAAAUGGUUACACU	-0.462	-0.739	-0.449	-0.123
AGUGUAAAAGUGCCUUUUACAUU [DMSMaPseq_invitro_SARS-CoV-2_Motif_79]	-0.863	-1.12	-0.69	-0.399

Sequence	pull-down binding Z-score [1]	pull-down binding Z-score [2]	pull-down binding Z-score [3]	pull-down binding Z-score [4]
AGUGUUUGCCUAGGUUCUUUAAUCUACUCAACCGCU	-0.288	-0.432	-0.346	-0.219
AGUUCAAGAAAUUCAACU	-0.478	-0.672	-0.166	-0.224
AGUUCAAGAACUUUACUCUCCAAUUUUUCUUAUUGUUGCGGCAAUAGUGUUUAUAACACUUUGCUUCACACUCAAAAGAAAGACAGAAUGAUUGAACU	-1.27	-1.13	-0.889	-0.46
AGUUGCUUACUCUAAUAACU [DMSMaPseq_invitro_SARS-CoV-2_Motif_421]	-0.387	-0.822	-0.129	-0.314
AGUUGUGAUCAACU	-1.06	-1.24	-0.744	-0.728
AGUUUACGCCCUGACACACGUUAUGUGCUCAUGGAUGGCU	-0.719	-0.321	-0.721	-0.516
AGUUUUUGUACACAAUUAAACCGUGCUUUAACU	-0.618	-1.04	-0.534	-0.252
AUAAAAUAGAAGAAUUAUUCUAUUCUUAU	-0.62	-1.22	-0.26	-0.288
AUAAACCACCCAUUAGUUUUCCAUUGUGUGCUAAUGGACAAGUUUUUGGUUUAU	-1.34	-1.1	-0.734	-0.594
AUAAAGAAAUGUAUCUAAAGUUGCGUAGUGAUGUGCUAUUACCUCUUACGCAAUAUAAUAGAUACUUAGCUCUUUAU	-0.507	-0.61	-0.341	-0.197
AUAACAAUACUAGAUGGAAUUUCACAGUAUUCACUGAGACUCAUUGAUGCUAUGAUGUUCACAUCUGAUUUGGCUACUAACAAUCUAGUUGU	0.384	-0.351	0.311	0.176
AUAAGAAAGACAAUUCUUAU [DMSMaPseq_invitro_SARS-CoV-2_Motif_114]	-1.07	-1.45	-0.755	-0.3
AUAAUAAGAGGCUGGAUUUUUGGUACUACUUUAGAUUCGAAGACCCAGUCCCUACUUAUUGU	-0.881	-0.612	-0.735	-0.168
AUACCACUUAUGUACAAAGGACUUCCUUGGAAUGUAGUGCGUAU	-0.207	0.76	-0.527	-0.319
AUACCUGCACGUGCUCGUGUAGAGUGU	-0.0676	-0.468	0.0809	-0.0175
AUAGAUUAUGUACCACUAAAGUCUGCUACGUGUAUAACACGUUGCAAUUUAGGUGGUGCUGUCUGU	-1.01	-0.77	-0.766	-0.399
AUAUAACUUCUAAAGAAACUUUGUAU	-1.28	-1.1	-0.911	-0.347
